According to patent publication US12582683B2, “Prostate neoantigens and their uses” (Jansen Biotech, Inc., priority 2019, dated 2026):

B1: VFFKRAAEGFFRMNKLKESSDTNPKPYCMAAPMGLTENNRNRKKSYRETNLKAVSWPLNHT [P77] (peptide, listed as Homo sapiens)
chain: VFFKRAAEGFFRMNKLKESSDTNPKPYCMAAPMGLTENNRNRKKSYRETNLKAVSWPLNHT
notes: AR-V3

Experiments:
[1] = tested on: CD8+ T cells in PBMCs from patients with metastatic castrate-resistant prostate cancer; test: Patient PBMC restimulation assay (in vitro immunogenicity of neoantigens); type: cell-based, human; set-up: Maximum frequency of TNFα+IFNγ+CD8+ T cells: unit not given here; settings: for Maximum fold change over: fold change over negative control, highest across the PBMC donors evaluated, 9 mer peptide; for Maximum frequency of TNFα+IFNγ+CD8+ T cells: greatest frequency among all tested PBMC donors, negative control 0.011-0.8
Procedure: In Vitro Immunogenicity Assessment of Neoantigens (“Patient PBMC Restimulation Assay”)
PBMCs from human patients with metastatic castrate-resistant prostate cancer were thawed using media (RPMI 1640 supplemented with Glutamax, 10% HI FBS, and 1× Sodium Pyruvate). Cells were counted and plated in a 96 well round bottom microplate at a concentration of 250,000 viable cells per well. Lyophilized peptides were solubilized in 100% DMSO and diluted in media to 10 μg/mL. Neoantigen peptides were added in equal volume to PBMCs for a final concentration of 5 μg/mL. CEF Peptide Pool “Plus” (Cellular Technologies, Ltd.) was utilized as a positive control and DMSO at the same final concentration as the experimental peptides was utilized as a negative control. Human IL-15 (Peprotech) was added to all wells at final concentration of 10 ng/mL.
Plates were incubated at 37° C. (5% CO2) for a total of 13 days. Media was refreshed every 2 days with IL-15 (10 ng/mL final concentration) and IL-2 (R&D systems, 10 IU/mL final concentration). On day 12, PBMCs were re-stimulated with identical experimental peptides or controls, at same concentration as peptide stimulation on Day 1. After 1-hour incubation, protein Inhibitor Cocktail (eBioscience) was added to every well and plate was incubated overnight.
On day 13, cells were stained for intracellular flow cytometry analysis. The cells were washed with PBS and stained with Live/Dead Fixable Aqua Dead Cell stain (Thermo-Fisher). Following the live/dead stain, cells were blocked using Biotin-Free Fe Receptor Blocker (Accurate Chemical & Scientific Corp). Extracellular cellular flow panel (1 μL/antibody per well in 50 μL) consisted of CD3 PerCP-Cy5.5 (Biolegend), CD4 BV421 (Biolegend), and CD8 APC-Cy7 (Biolegend). After extracellular staining, cells were fixed using Foxp3/Transcription Factor Staining Buffer Set (eBioscience) and stained for intracellular proteins (1:50 dilution) using TNFα FITC (R&D Systems) and IFNγ BV785 (Biolegend). Cells were washed and resuspended in stain buffer and analyzed using a BD Celesta flow cytometer.
Flow cytometry cell staining analysis was completed using FlowJo v10. Cells were gated on live, singlet, CD3+ cells. The CD8+ T cells were analyzed for TNFα/IFNγ expression and the frequency of double positive TNFα/IFNγ CD8+ T cells was recorded. Responses were assessed to be positive when the frequency of double positive TNFα/IFNγ CD8+ T cells due to stimulation with an experimental peptide was increased greater than or equal to 2-fold over the DMSO only negative control for that patient. Peptides were analyzed in 1 to 7 patient samples.
The 9 mer fragments shown in Table 13 were assessed for their ability to activate T cells using the Patient PBMC restimulation assay described in Example 1 using TNFα and IFNγ production by CD8^+ T cells as a readout. Self-antigens shown in Table 15 were also used in the assays. […] PBMCs from ten patients were evaluated.

HLA-A*01:01 = HLA-A*01:01 (Homo sapiens, UniProt P04439, A114D/A174V/A182V/D101N/D185E/E176A/E190D/L180R/Q94H/R68K/S129P/T187R/V100A/V91M/W191G); test: In vitro binding of neoantigens to class I MHC (UV peptide exchange, HLA class I ELISA); settings: 100% = same binding affinity as positive control peptide
Procedure: (§1) In Vitro Binding of Neoantigens to Class I MHC
(§2) The 9 mer peptides identified by bioinformatics analysis were analyzed for their binding propensities to 6 common HLA class I alleles (HLA-A*01:01, A*02:01, A*03:01, A*24:02, B*07:02, B*08:01). The principle of the method is briefly described below and consists of two parts, one involving exchange of peptide with a positive control induced by Ultraviolet (UV) radiation, and the second is an enzyme immunoassay to detect stable HLA-peptide and empty HLA complexes.
(§3) HLA-bound peptides are critical for the stability of the HLA complex.
(§4) The exchange efficiency between the peptide of interest and Pos was analyzed using an HLA class I ELISA. The combined technologies allowed the identification of ligands for an HLA molecule of interest which are potentially immunogenic.
(§5) The UV control represented UV-irradiation of conditional HLA class I complex in the absence of a rescue peptide. […] To this end streptavidin was bound onto polystyrene microtiter wells. After washing and blocking, HLA complex present in exchange reaction mixtures or ELISA controls was captured by the streptavidin on the microtiter plate via its biotinylated heavy chain. Non-bound material was removed by washing. Subsequently, horseradish peroxidase (HRP)-conjugated antibody to human B2M was added. […] In the latter case B2M was removed during the washing step. After removal of non-bound HRP conjugate by washing, a substrate solution was added to the wells. A coloured product formed in proportion to the amount of intact HLA complex present in the samples. After the reaction was terminated by the addition of a stop solution, absorbance was measured in a microtiter plate reader. […] Suboptimal HLA binding of peptides with a moderate to low affinity for HLA class I molecules can also be detected by this ELISA technique (Rodenko, B et al. (2006) Nature Protocols 1: 1120-32).
(§6) Binding of select neoepitopes to HLA-A*01:01, HLA-A* 02:01, HLA-A* 03:01, HLA-A*24:02, HLA-1B*07:02 and HLA-1B*08:01 was evaluated using the assay described in Example 1. […] As a criterion for further evaluation, peptides with an exchange rate of at least 10% with the corresponding Pos peptide for at least one of the 6 HLA alleles that we considered for further evaluation. […] Higher percentages correspond to stronger binding to the HLA allele.

HLA-A*03:01 = HLA-A*03:01 (Homo sapiens, UniProt P04439); test: as above; settings: 100% = same binding affinity as positive control peptide
Procedure: as §1, §2, §3, §4, §5, §6

HLA-A*24:02 = HLA-A*24:02 (Homo sapiens, UniProt P04439, D101N/D140Y/D185E/E176V/E190D/F33S/G103R/G107R/I119L/I121M/I306V/K335N/L105A/L180Q/L300P/N151K/N90K/Q86E/Q94H/R106L/R138H/R89G/T104I/T345S/V100E/W191G/Y123F); test: as above; settings: 100% = same binding affinity as positive control peptide
Procedure: as §1, §2, §3, §4, §5, §6

HLA-A*02:01 = HLA-A*02:01 (Homo sapiens, UniProt P04439, D140Y/D185E/D98H/E176V/E277Q/G131W/G231S/I119V/I121R/I166T/I218V/L300P/L318F/N151K/N90K/P208A/P217A/Q86G/Q94H/R138H/R169H/T345S); test: as above; settings: 100% = same binding affinity as positive control peptide
Procedure: as §1, §2, §3, §4, §5, §6

HLA-B*07:02 = HLA-B*07:02 (Homo sapiens, UniProt P01889); test: as above; settings: 100% = same binding affinity as positive control peptide
Procedure: as §1, §2, §3, §4, §5, §6

Molecule | Maximum fold change over [1] | Maximum frequency of TNFα+IFNγ+CD8+ T cells [1] | Exchange rate with Pos peptide, HLA-A*01:01 (HLA-A*01:01) [%] | Exchange rate with Pos peptide, HLA-A*03:01 (HLA-A*03:01) [%] | Exchange rate with Pos peptide, HLA-A*24:02 (HLA-A*24:02) [%] | Exchange rate with Pos peptide, HLA-A*02:01 (HLA-A*02:01) [%] | Exchange rate with Pos peptide, HLA-B*07:02 (HLA-B*07:02) [%] | Immunogenic ([1]; patient PBMC restimulation, CD8+ T cells)
CYLRRQKRLKCEKQPGA (listed as Homo sapiens) [Neoantigen P60, FOXA1.p.F266L] | 2.08 | 0.340 | 3.1 | 36.6 | 0.9 | 7.9 | 6.1 | 
DDRNTFDIVWWCPMSRLRLALTVPPSTTTTCVTVPAWAA [P46] (listed as Homo sapiens) [Neoantigen P46, TP53 (R213D)] | 2.33 | 0.140 |  | 10.3 | −0.4 | 14.4 | 64.8 | 
DSSGNLLERNSFEVRV (listed as Homo sapiens) [Neoantigen P73, TP53 (G266E)] | 2.97 | 0.110 | 2.1 | 3.5 | 0.5 | 89.2 | 8.7 | 
GVPGDSTRRAVRRMNTF [P17] (listed as Homo sapiens) [Neoantigen P17, MSMB-NOCA4] |  | 0.130 | 4.9 | 3.8 | 0.1 |  | 38.7 | 
GYLRMQGLMAQRLLLR (listed as Homo sapiens) [Neoantigen P97, FOXRED2-TXN2] | 4.55 | 0.160 | 2.5 | 39 | 0.1 | 4.6 | 7 | 
LHPDSGNMVENGCYLRR (listed as Homo sapiens) [Neoantigen P59, FOXA1 (F254V)] | 10.75 | 3.010 |  |  |  |  |  | 
LHPQRETFTPRWSGANYWKLAFPVGAEGTFPAAATQRGVVRPA (listed as Homo sapiens) [Neoantigen P27, FAM126B-ORC2] | 3.43 | 0.430 |  |  |  |  |  | 
MAGGVLRRLLCREPDRDGDKGASREETVVPLHIGDPVVLPGIGQCYSALF (listed as Homo sapiens) [Neoantigen P37, TSTD1-F11R] | 3.13 | 1.160 |  |  |  |  |  | 
MFENGCYLGRQKRFKCE (listed as Homo sapiens) [Neoantigen P61, FOXAl.p.R261G] |  | 0.084 | 1.7 | 2.1 | 90.3 | 5.8 |  | 
MMAEHSVHVPKILSGK (MMAEIISVHVPKILSGK; listed as Homo sapiens) [Neoantigen P58, AR (Q903H)] |  | 5.370 | 2.5 | 32.5 | 0.2 | 11.8 |  | 
NSKMALNSLNSIDDAQLTRIAPPRSHCCFWEVNAP (listed as Homo sapiens) [Neoantigen P35, TMPRSS2-ERG] | 2.67 | 0.064 |  |  |  |  |  | 
PKSEVRAKCKFSILNAK (listed as Homo sapiens) [Neoantigen P56, SPOP (F102C)] | 11.57 | 1.620 | 2.6 | 6.8 | 0.5 | 8.4 | 82.5 | 
QMAVIQYSCMGLMVFAM (listed as Homo sapiens) [Neoantigen P50, AR (W742C)] | 5.14 | 0.190 |  |  |  |  |  | 
SLYHREKQLIAMDSAI (listed as Homo sapiens) [Neoantigen P22, 5LC45A3-ELK4] | 5.00 | 0.120 | 4.4 | 4.8 | 0 | 46.9 | 8.3 | 
VQPIARELYQFTFDLLI (listed as Homo sapiens) [Neoantigen P48, AR.p.H875Y] | 2.33 | 0.220 | 4.3 | 4.4 | 0.1 | 99.3 | 12.8 | 
B1 | 3.24 | 0.160 |  |  |  |  |  | Yes
